# From patent US20170166895
# Molecular target: Complement component 3 (C3) (Homo sapiens) (UniProt P01024+P01024)
# Assay: filter
# Details: 3'-3' idT
# [1] = all U in listing = NapdU, SB18T0.01, 37C
# [2] = all U = NapdU, T = dT, SB18T0.01, 37C
# [3] = all U in listing = NapdU, SB18T0.01 (5 mM MgCl2), 37C
# Chain of Complement component 3 (C3) (Homo sapiens) (P01024 23-667, chain 1 of 2): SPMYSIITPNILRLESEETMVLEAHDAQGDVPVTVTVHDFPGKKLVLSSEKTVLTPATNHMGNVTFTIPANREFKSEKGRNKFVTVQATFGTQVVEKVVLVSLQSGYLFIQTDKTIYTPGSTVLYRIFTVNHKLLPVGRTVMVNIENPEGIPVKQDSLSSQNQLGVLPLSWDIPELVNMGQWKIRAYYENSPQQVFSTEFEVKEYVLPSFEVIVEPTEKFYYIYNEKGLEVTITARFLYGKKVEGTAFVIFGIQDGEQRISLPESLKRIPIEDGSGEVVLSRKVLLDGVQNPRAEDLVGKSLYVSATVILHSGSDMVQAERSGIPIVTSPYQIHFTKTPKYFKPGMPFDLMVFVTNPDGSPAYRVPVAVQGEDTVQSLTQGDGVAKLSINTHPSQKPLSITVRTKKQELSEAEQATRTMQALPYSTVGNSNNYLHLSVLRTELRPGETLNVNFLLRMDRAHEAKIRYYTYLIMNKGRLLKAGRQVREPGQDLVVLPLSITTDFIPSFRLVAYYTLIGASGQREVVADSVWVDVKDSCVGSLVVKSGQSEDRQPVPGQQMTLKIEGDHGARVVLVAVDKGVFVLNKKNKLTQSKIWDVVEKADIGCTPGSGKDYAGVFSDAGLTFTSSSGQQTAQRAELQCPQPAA
# Chain of Complement component 3 (C3) (Homo sapiens) (P01024 672-1663, chain 2 of 2): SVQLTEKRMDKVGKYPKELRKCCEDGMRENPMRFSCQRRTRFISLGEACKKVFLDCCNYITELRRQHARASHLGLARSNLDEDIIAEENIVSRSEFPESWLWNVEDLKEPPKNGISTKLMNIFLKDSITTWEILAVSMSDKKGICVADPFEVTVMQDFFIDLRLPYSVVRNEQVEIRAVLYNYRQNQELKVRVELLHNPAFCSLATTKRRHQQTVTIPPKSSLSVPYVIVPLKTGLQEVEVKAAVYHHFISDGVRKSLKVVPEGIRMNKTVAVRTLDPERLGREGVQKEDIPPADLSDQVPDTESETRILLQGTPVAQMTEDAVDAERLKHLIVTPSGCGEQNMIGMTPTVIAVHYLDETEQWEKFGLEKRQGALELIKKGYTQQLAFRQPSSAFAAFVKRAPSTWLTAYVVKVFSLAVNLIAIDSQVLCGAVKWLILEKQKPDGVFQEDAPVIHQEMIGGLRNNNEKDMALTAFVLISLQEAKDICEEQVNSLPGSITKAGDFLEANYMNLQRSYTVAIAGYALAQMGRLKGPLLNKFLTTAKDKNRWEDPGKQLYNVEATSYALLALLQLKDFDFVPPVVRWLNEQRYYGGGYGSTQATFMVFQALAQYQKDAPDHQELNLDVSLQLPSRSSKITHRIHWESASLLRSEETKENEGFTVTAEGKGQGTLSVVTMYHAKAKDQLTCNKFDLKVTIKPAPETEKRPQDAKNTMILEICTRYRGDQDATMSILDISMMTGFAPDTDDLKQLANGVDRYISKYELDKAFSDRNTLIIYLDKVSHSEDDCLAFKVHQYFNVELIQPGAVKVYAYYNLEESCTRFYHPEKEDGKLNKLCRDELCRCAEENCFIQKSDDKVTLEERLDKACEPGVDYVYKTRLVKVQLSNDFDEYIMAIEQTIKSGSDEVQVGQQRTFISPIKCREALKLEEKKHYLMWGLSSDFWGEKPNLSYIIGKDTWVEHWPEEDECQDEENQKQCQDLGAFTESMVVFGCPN
sequence,measurement,setting,value
ACTCCACGGUGACUCCAUAGUCCGUACGUUCCCGCGGACGCACCGAGGA [8491-388_3],Kd,[1],0.71 nM
ACTCCAGACUGUAGUUGACUCCAUAGUCCGUACGUUUACACAUUGGAGGA [8491-189_3],Kd,[1],0.0335 nM
ACTCCAGCAACUUGACUCAAUAGUCCGUACGUUUAUGCGAGAACAGAGGA [8491-386_3],Kd,[1],0.104 nM
ACTCCAUGUCGGCGUUUGACUCAAUAGUCCGUACGUUUGGCCGGGCAGGGGAGGA [8491-405_3],Kd,[1],0.159 nM
ACTCCAUGUCGGCGUUUGGCUCAAUAGUCCGUACGUUUUACGCGUGAGGA [8491-389_3],Kd,[1],0.0295 nM
ACTCCCAAGCCUCUCGGUUUGGCUAAAUAGUCCGUACGUUUUCACGAGGA [8491-408_3],Kd,[1],0.161 nM
ACTCCCCGGTGACUCAAUAGUCCGUACGUUCCCGGUCCGAACGCGGAGGA [8491-94_11],Kd,[2],29.5 nM
ACTCCCCGGUGACTCAAUAGUCCGUACGUUCCCGGUCCGAACGCGGAGGA [8491-94_12],Kd,[2],8.57 nM
ACTCCCCGGUGACUCAATAGUCCGUACGUUCCCGGUCCGAACGCGGAGGA [8491-94_13],Kd,[2],41.7 nM
ACTCCCCGGUGACUCAAUAGUCCGUACGTUCCCGGUCCGAACGCGGAGGA [8491-94_16],Kd,[2],69.4 nM
ACTCCCCGGUGACUCAAUAGUCCGUACGUTCCCGGUCCGAACGCGGAGGA [8491-94_17],Kd,[2],2.88 nM
ACTCCCCGGUGACUCAAUAGUCCGUACGUU [8491-94_21],Kd,"all U = NapdU, SB18T0.01, 37C",0.249 nM
ACTCCCCGGUGACUCAAUAGUCCGUACGUUCC [8491-94_20],Kd,"all U = NapdU, SB18T0.01, 37C",1.14 nM
ACTCCCCGGUGACUCAAUAGUCCGUACGUUCCCGG [8491-94_19],Kd,"all U = NapdU, SB18T0.01, 37C",0.0559 nM
ACTCCCCGGUGACUCAAUAGUCCGUACGUUCCCGGTCCGAACGCGGAGGA [8491-94_18],Kd,[2],0.0421 nM
ACTCCCCGGUGACUCAAUAGUCCGUACGUUCCCGGUCC [8491-94_7],Kd,"all U = NapdU, SB18T0.01, 37C",0.0194 nM
ACTCCCCGGUGACUCAAUAGUCCGUACGUUCCCGGUCCGAA [8491-94_6],Kd,"all U = NapdU, SB18T0.01, 37C",0.019 nM
ACTCCCCGGUGACUCAAUAGUCCGUACGUUCCCGGUCCGAACGC [8491-94_5],Kd,"all U = NapdU, SB18T0.01, 37C",0.0298 nM
ACTCCCCGGUGACUCAAUAGUCCGUACGUUCCCGGUCCGAACGCGGA [8491-94_4],Kd,"all U = NapdU, SB18T0.01, 37C",0.0291 nM
ACTCCCCGGUGACUCAAUAGUCCGUACGUUCCCGGUCCGAACGCGGAGGA [8491-94_3],Kd,[3],0.0313 nM
ACTCCCCGGUGACUCAAUAGUCCGUACGUUUGGCCGGGCAGGGGAGGA [8491-395_3],Kd,[1],3.52 nM
ACTCCCUAACACGGCCGAGUUGACUCCCAUAGUCCGUACGUUUGCGAGGA [8491-387_3],Kd,[1],0.519 nM
ACTCCCUAUGAGGGCUGAUUCAAUAGUCAGUACGUUCGCCCCAUCGAGGA [8491-399_3],Kd,[1],8.61 nM
ACTCCCUUAAAAGGGUCGUUGACUCCAUAGUCCGUACGUUUCCGAGAGGA [8491-394_3],Kd,[1],0.448 nM
ACTCCGAGCAUUGACUCAAUAGUCCGUACGUUCCCGGUCUGAACGUGGAGGA [8491-406_3],Kd,[1],2.47 nM
ACTCCGAGCAUUGACUCAAUAGUCCGUACGUUUGGCCCGUUCACAAGGAGGA [8491-393_3],Kd,[1],0.25 nM
ACTCCGAGCAUUGACUCAAUAGUCCGUACGUUUGGCCGGGCAGGGGAGGA [8491-3_3],Kd,[3],0.119 nM
ACTCCGAGCAUUGACUCAAUAGUCCGUACGUUUUACGCGUGAGGA [8491-407_3],Kd,[1],0.208 nM
ACTCCGAGCAUUGACUCAAUAGUCCGUACGUUUUUGACCGGGGCAGGGGGAGGA [8491-385_3],Kd,"all U in listing = NapdU, printed as 1.46-10, SB18T0.01, 37C",0.146 nM
ACTCCGAGCAUUGACUCAAUAGUCCGUACGUUUUUUUGGGCCGGGGGGGCAGGAGGA [8491-403_3],Kd,"all U in listing = NapdU, printed as 1.53-10, SB18T0.01, 37C",0.153 nM
ACTCCGAGCUUUUUUGACUCAAUUAGUCCGUACGUUUUUUGGCCGGGCAGGGGAGGA [8491-404_3],Kd,[1],0.185 nM
ACTCCGUCUGGCUAACUUAGUCCGUACGUUCGUGAGCGUGAUUAUGAGGA [8491-397_3],Kd,[1],3.11 nM
ACTCCUACAAAGCGAUUGGCUCGAUAGUCAGUACGUUUCUCGCUCGAGGA [8491-390_3],Kd,[1],0.412 nM
ACTCCUACGGUUGGCUCCAUAGUCAGUACGUUUACGAUACCCCGAGGA [8491-282_3],Kd,[1],0.27 nM
ACTCCUCCCACACGACGAAUUUGACUCAAUAGUCCGUACGUUUUAGAGGA [8491-402_3],Kd,[1],0.0739 nM
ACTCCUCCCUUUGGCUCGAUAGUCGGUACGUUUUGGGGAGGCGUGGAGGA [8491-409_3],Kd,[1],0.316 nM
ACTCCUGUUGACUCACAUAGUCCGUACGUUUACGGCAAUAGCACAGAGGA [8491-396_3],Kd,[1],0.311 nM
ACTCCUUGACUCGAUAGUCCGUACGUUUGCGGAAUACCAGCUGACGAGGA [8491-400_3],Kd,[1],1.2 nM
CCCCGGUGACUCAAUAGUCCGUACGUUCCCGG [8491-94_25],Kd,"all U = NapdU, SB18T0.01, 37C",0.0928 nM
CCCCGGUGACUCAAUAGUCCGUACGUUCCCGGUCC [8491-94_24],Kd,"all U = NapdU, SB18T0.01, 37C",0.0535 nM
CCCCGGUGACUCAAUAGUCCGUACGUUCCCGGUCCGAACGCGGAGGA [8491-94_8],Kd,"all U = NapdU, SB18T0.01, 37C",0.0369 nM
CCCGGUGACUCAAUAGUCCGUACGUUCCCGGUCCGAACGCGGAGGA [8491-94_22],Kd,"all U = NapdU, SB18T0.01, 37C",0.103 nM
CCGGUACUCAAUAGUCCGUACGUUCCCGG [8491-94_34],Kd,"all U = NapdU, C3-spacer replaces G6, SB18T0.01, 37C",14.1 nM
CCGGUGACUAAUAGUCCGUACGUUCCCGG [8491-94_37],Kd,"all U = NapdU, C3-spacer replaces C10, SB18T0.01, 37C",0.0922 nM
CCGGUGACUCAAUAGUCCGUACGUUCCC [8491-94_28],Kd,"all U = NapdU, printed as 2.65-10, SB18T0.01, 37C",0.265 nM
CCGGUGACUCAAUAGUCCGUACGUUCCCG [8491-94_51],Kd,"all U = NapdU, C3-spacer replaces G29, SB18T0.01, 37C",0.227 nM
CCGGUGACUCAAUAGUCCGUACGUUCCCG [8491-94_52],Kd,"all U = NapdU, C3-spacer replaces G30, SB18T0.01, 37C",0.0504 nM
CCGGUGACUCAAUAGUCCGUACGUUCCCGGUCCGAACGCGGAGGA [8491-94_23],Kd,"all U = NapdU, SB18T0.01, 37C",0.0621 nM
CCGGUGACUCAAUAGUCCGUACGUUCCGG [8491-94_48],Kd,"all U = NapdU, C3-spacer replaces C26, SB18T0.01, 37C",0.0302 nM
CCGGUGACUCAAUAGUCCGUACGUUCCGG [8491-94_49],Kd,"all U = NapdU, C3-spacer replaces C27, SB18T0.01, 37C",0.266 nM
CCGGUGACUCAAUAGUCCGUACGUUCCGG [8491-94_50],Kd,"all U = NapdU, C3-spacer replaces C28, SB18T0.01, 37C",0.448 nM
CCGGUGACUCAAUAGUCCGUCGUUCCCGG [8491-94_45],Kd,"all U = NapdU, C3-spacer replaces A21, SB18T0.01, 37C",228 nM
CCGGUGACUCAAUAGUCCUACGUUCCCGG [8491-94_44],Kd,"all U = NapdU, C3-spacer replaces G19, SB18T0.01, 37C",1.28 nM
CCGGUGACUCAAUAGUCGUACGUUCCCGG [8491-94_42],Kd,"all U = NapdU, C3-spacer replaces C17, SB18T0.01, 37C",0.86 nM
CCGGUGACUCAAUAGUCGUACGUUCCCGG [8491-94_43],Kd,"all U = NapdU, C3-spacer replaces C18, SB18T0.01, 37C",0.0142 nM
CCGGUGACUCAAUAUCCGUACGUUCCCGG [8491-94_41],Kd,"all U = NapdU, C3-spacer replaces G15, SB18T0.01, 37C",0.598 nM
CCGGUGACUCAAUGUCCGUACGUUCCCGG [8491-94_40],Kd,"all U = NapdU, C3-spacer replaces A14, SB18T0.01, 37C",1.99 nM
CCGGUGACUCAUAGUCCGUACGUUCCCGG [8491-94_38],Kd,"all U = NapdU, C3-spacer replaces A11, SB18T0.01, 37C",0.148 nM
CCGGUGACUCAUAGUCCGUACGUUCCCGG [8491-94_39],Kd,"all U = NapdU, C3-spacer replaces A12, SB18T0.01, 37C",0.31 nM
CCGGUGAUCAAUAGUCCGUACGUUCCCGG [8491-94_36],Kd,"all U = NapdU, C3-spacer replaces C8, SB18T0.01, 37C",0.0315 nM
CCGGUGCUCAAUAGUCCGUACGUUCCCGG [8491-94_35],Kd,"all U = NapdU, C3-spacer replaces A7, SB18T0.01, 37C",5.67 nM
CCGUGACUCAAUAGUCCGUACGUUCCCGG [8491-94_32],Kd,"all U = NapdU, C3-spacer replaces G3, SB18T0.01, 37C",0.78 nM
CCGUGACUCAAUAGUCCGUACGUUCCCGG [8491-94_33],Kd,"all U = NapdU, C3-spacer replaces G4, SB18T0.01, 37C",0.245 nM
CGGUGACUCAAUAGUCCGUACGUUCCCG [8491-94_59],Kd,"P = NapdU (all U), 2'-OMe C1, SB18T0.01, 5 mM MgCl2, 37 C",0.0342 nM
CGGUGACUCAAUAGUCCGUACGUUCCCG [8491-94_60],Kd,"P = NapdU (all U), 2'-OMe G2, SB18T0.01, 5 mM MgCl2, 37 C",0.0537 nM
CGGUGACUCAAUAGUCCGUACGUUCCCG [8491-94_61],Kd,"P = NapdU (all U), 2'-OMe G3, SB18T0.01, 5 mM MgCl2, 37 C",0.0237 nM
CGGUGACUCAAUAGUCCGUACGUUCCCG [8491-94_62],Kd,"P = NapdU (all U), 2'-OMe P4, SB18T0.01, 5 mM MgCl2, 37 C",0.0918 nM
CGGUGACUCAAUAGUCCGUACGUUCCCG [8491-94_63],Kd,"P = NapdU (all U), 2'-OMe G5, SB18T0.01, 5 mM MgCl2, 37 C",0.0268 nM
CGGUGACUCAAUAGUCCGUACGUUCCCG [8491-94_64],Kd,"all U = NapdU, 2'-OMe at A6, SB18T0.01, 37C",0.512 nM
CGGUGACUCAAUAGUCCGUACGUUCCCG [8491-94_65],Kd,"P = NapdU (all U), 2'-OMe C7, SB18T0.01, 5 mM MgCl2, 37 C",0.0316 nM
CGGUGACUCAAUAGUCCGUACGUUCCCG [8491-94_66],Kd,"all U = NapdU, 2'-OMe at NapdU8, SB18T0.01, 37C",0.149 nM
CGGUGACUCAAUAGUCCGUACGUUCCCG [8491-94_67],Kd,"P = NapdU (all U), 2'-OMe C9, SB18T0.01, 5 mM MgCl2, 37 C",0.0699 nM
CGGUGACUCAAUAGUCCGUACGUUCCCG [8491-94_68],Kd,"P = NapdU (all U), 2'-OMe A10, SB18T0.01, 5 mM MgCl2, 37 C",0.0424 nM
